{
  "source": "paper PMC3264399",
  "origin": "cited, not measured here",
  "key": {"ephrin-B2 (Homo sapiens)": {"target": "ephrin-B2 (Homo sapiens) (UniProt P52799)", "sequence (P52799 28-333)": "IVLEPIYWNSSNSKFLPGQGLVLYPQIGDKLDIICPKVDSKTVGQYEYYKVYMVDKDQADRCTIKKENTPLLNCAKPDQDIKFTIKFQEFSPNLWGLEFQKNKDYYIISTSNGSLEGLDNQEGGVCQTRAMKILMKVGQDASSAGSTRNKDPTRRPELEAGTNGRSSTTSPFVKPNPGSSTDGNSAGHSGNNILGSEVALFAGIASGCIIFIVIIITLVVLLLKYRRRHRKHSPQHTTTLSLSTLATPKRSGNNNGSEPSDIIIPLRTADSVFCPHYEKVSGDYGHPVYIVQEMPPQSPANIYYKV"}, "ephrin-B3 (Homo sapiens)": {"target": "ephrin-B3 (Homo sapiens) (UniProt Q15768)", "sequence (Q15768 28-340)": "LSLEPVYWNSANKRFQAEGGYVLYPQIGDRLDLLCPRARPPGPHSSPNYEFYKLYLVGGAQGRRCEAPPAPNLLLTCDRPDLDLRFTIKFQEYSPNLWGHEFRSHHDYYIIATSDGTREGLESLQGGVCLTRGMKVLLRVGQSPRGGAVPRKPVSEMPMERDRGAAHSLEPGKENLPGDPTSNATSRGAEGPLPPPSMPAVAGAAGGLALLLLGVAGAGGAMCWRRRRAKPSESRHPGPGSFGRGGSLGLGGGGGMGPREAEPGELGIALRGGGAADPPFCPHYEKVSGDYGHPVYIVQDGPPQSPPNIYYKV"}, "CD46 (Homo sapiens)": {"target": "CD46 (Homo sapiens) (UniProt P15529)", "sequence (P15529 35-392)": "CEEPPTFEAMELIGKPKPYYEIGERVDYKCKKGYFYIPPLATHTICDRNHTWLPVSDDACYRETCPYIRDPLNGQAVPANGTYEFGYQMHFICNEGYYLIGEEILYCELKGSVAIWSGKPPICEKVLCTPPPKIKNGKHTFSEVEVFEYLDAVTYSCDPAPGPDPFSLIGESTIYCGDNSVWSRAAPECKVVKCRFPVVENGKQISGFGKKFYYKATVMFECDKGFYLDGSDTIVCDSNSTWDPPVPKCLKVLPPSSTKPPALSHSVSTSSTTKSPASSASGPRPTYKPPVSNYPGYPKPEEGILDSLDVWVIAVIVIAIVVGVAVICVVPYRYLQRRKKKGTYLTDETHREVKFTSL"}},
  "data": [
    {"substance": "NiV-G (from UniProt Q9IH62)", "values": [
      {"measurement": "Kd", "setting": "ephrin-B2 (Homo sapiens)", "value": 0.06, "unit": "nM"},
      {"measurement": "Kd", "setting": "ephrin-B3 (Homo sapiens)", "value": 0.58, "unit": "nM"}
    ]},
    {"substance": "MeV-H (from UniProt P08362)", "values": [
      {"measurement": "Kd", "setting": "CD46 (Homo sapiens)", "value": 2200, "unit": "nM"}
    ]}
  ]
}
